Experimental data from publication PMC11931385, “Structural and functional analysis of cancer-associated missense variants in the retinoblastoma protein pocket domain” (The Journal of Biological Chemistry, 2025).
No end group written: not given here. TMR = tetramethyl rhodamine dye

Columns and labels:
Assay in all cases: fluorescence polarisation; 37 °C, after the 25 °C reading ramped over 7 min to 37 °C and 2 min incubation; unlabeled Rb^P against 1.5 nM TMR-E2F1^TD or 7.5 nM TMR-E7^LxCxE; 25 mM Tris pH 8.0, 200 mM NaCl, 1 mM DTT, 0.1% Tween-20; apparent Kd
Details in all cases: both partners purified
Rb^P R621S = biological target: T1, Rb^P R621S (human, UniProt P06400 380-788, R621S)
T1 construct: also called variant 44
T1 sequence (looked up): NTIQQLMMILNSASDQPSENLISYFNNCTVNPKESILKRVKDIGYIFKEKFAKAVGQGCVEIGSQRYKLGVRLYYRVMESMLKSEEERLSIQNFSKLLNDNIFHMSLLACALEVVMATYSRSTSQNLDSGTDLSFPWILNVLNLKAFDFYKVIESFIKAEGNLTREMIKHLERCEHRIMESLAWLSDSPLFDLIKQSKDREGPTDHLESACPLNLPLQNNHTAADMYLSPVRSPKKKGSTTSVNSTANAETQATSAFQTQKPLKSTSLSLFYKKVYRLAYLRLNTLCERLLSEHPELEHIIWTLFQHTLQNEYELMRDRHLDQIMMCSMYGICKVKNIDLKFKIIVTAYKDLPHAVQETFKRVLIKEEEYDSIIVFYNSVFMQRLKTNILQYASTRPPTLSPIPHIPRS

Rb^P S474N = biological target: T2, Rb^P S474N (human, UniProt P06400 380-788, S474N)
T2 construct: also called variant 12
T2 sequence (looked up): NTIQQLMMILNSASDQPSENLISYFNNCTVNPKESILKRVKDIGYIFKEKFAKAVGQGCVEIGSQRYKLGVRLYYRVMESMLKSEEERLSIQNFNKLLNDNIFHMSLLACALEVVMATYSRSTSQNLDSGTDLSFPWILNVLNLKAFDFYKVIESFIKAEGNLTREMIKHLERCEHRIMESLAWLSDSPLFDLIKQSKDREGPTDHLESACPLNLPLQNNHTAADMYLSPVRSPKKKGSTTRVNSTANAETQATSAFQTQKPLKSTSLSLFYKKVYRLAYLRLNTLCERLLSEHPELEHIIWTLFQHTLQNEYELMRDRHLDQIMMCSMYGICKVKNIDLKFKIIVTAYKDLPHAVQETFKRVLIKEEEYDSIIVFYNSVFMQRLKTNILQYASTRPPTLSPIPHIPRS

Rb^P M546I = biological target: T3, Rb^P M546I (human, UniProt P06400 380-788, M546I)
T3 construct: also called variant 25
T3 sequence (looked up): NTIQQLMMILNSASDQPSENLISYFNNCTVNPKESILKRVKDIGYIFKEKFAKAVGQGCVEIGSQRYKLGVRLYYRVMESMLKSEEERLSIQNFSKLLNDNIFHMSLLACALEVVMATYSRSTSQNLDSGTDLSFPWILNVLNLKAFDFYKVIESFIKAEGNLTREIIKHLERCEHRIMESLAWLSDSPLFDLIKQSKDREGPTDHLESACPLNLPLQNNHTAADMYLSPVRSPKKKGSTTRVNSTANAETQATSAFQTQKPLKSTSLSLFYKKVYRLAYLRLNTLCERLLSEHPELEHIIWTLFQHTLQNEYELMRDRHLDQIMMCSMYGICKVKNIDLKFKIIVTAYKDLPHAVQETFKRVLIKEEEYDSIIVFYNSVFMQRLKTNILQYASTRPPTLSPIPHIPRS

Rb^P S534R = biological target: T4, Rb^P S534R (human, UniProt P06400 380-788, S534R)
T4 construct: also called variant 23
T4 sequence (looked up): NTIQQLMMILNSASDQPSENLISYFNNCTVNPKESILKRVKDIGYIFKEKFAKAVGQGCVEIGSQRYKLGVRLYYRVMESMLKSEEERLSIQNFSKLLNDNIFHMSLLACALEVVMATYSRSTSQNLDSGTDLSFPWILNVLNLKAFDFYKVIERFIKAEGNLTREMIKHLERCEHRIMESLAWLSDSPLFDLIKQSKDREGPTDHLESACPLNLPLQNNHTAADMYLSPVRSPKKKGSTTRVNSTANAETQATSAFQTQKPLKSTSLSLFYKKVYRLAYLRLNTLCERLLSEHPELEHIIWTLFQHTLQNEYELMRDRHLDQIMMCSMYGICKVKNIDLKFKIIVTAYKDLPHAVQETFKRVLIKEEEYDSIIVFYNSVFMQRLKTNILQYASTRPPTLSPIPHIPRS

Rb^P M704V = biological target: T5, Rb^P M704V (human, UniProt P06400 380-788, M704V)
T5 construct: also called variant 66
T5 sequence (looked up): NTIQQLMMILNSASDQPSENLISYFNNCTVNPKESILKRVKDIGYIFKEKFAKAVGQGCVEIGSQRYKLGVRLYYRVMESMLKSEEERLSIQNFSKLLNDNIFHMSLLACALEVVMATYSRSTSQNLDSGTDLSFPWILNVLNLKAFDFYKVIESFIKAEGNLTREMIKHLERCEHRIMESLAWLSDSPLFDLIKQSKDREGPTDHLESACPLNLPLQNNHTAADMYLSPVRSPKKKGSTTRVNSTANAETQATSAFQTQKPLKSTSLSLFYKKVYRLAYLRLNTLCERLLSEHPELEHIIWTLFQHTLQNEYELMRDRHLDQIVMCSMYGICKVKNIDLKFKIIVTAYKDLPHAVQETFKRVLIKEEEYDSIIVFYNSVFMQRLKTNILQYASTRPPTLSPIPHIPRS

B1: TMR-E2F1^TD, peptide of the E2F1 transactivation domain (peptide)
peptide: {TMR}-GEGIRDLFDCDFGDLTPLD
notes: also called E2F^TD; source: synthetic peptide, bought: GenScript
B1 gave a Kd (Rb^P R621S) of 38 nM, a Kd (Rb^P S474N) of 26 nM and a Kd (Rb^P M546I) of 21 nM. For the same binder, the Kd (Rb^P S534R) was 18000 nM and the Kd (Rb^P M704V) was 129 nM.

B2: TMR-E7^LxCxE, LxCxE peptide of the E7 oncoprotein from HPV (peptide)
peptide: DLYCYEQLN
modifications: also: TMR label, position not given here
notes: source: synthetic peptide, bought: GenScript
With B2 the Kd (Rb^P R621S) was 17 nM, the Kd (Rb^P S474N) was 13 nM and the Kd (Rb^P M546I) was 13 nM. It also gave a Kd (Rb^P S534R) of 11 nM and a Kd (Rb^P M704V) of 51 nM.
